Data from US20250382363A1 (NUMAB THERAPEUTICS, published 2025).

B1: PRO2994 (scFv 54-21-H03-sc01_(P48A)) (scFv)
scFv: DIQMTQSPSSLSASVGDRVTITCQASESIYSSLAWYQQKPGKAPKLLIYLASTLASGVPSRFSGSGSGTDFTLTISSLQPEDFATYYCQSTDYTTSTHRNSFGTGTKVTVLGGGGGSGGGGSGGGGSGGGGSEVQLVESGGGLVQPGGSLRLSCAASGFSFSTTYYMCWVRQAAGKGLEWIGCTNTASSVRTYYATWAKGRFTISRDNSKNTVYLQMNSLRAEDTAVYYCARDMGFADYALNLWGQGTLVTVSS
notes: PRO1922 variant; VH substitution, AHo numbering; also called PRO1922 P48A
B2: PRO3324 (scFv 54-21-H03-sc01_(T101R, T146Q)) (scFv)
scFv: DIQMTQSPSSLSASVGDRVTITCQASESIYSSLAWYQQKPGKAPKLLIYLASTLASGVPSRFSGSGSGTDFTLTISSLQPEDFATYYCQSTDYTTSTHRNSFGTGTKVTVLGGGGGSGGGGSGGGGSGGGGSEVQLVESGGGLVQPGGSLRLSCAASGFSFSTTYYMCWVRQAPGKGLEWIGCTNTASSVRTYYATWAKGRFTISRDNSKNTVYLQMNSLRAEDRAVYYCARDMGFADYALNLWGQGTLVQVSS
notes: PRO1922 variant; VH substitutions, AHo numbering; also called PRO1922 T101R-T146Q
B3: PRO3344 (scFv 54-21-H03-sc01_(T101K, T146Q)) (scFv)
scFv: DIQMTQSPSSLSASVGDRVTITCQASESIYSSLAWYQQKPGKAPKLLIYLASTLASGVPSRFSGSGSGTDFTLTISSLQPEDFATYYCQSTDYTTSTHRNSFGTGTKVTVLGGGGGSGGGGSGGGGSGGGGSEVQLVESGGGLVQPGGSLRLSCAASGFSFSTTYYMCWVRQAPGKGLEWIGCTNTASSVRTYYATWAKGRFTISRDNSKNTVYLQMNSLRAEDKAVYYCARDMGFADYALNLWGQGTLVQVSS
notes: PRO1922 variant; VH substitutions, AHo numbering; also called PRO1922 T101K-T146Q
B4: PRO3322 (scFv 54-21-H03-sc01_(L12R, T101R, L144A, T146Q)) (scFv)
scFv: DIQMTQSPSSLSASVGDRVTITCQASESIYSSLAWYQQKPGKAPKLLIYLASTLASGVPSRFSGSGSGTDFTLTISSLQPEDFATYYCQSTDYTTSTHRNSFGTGTKVTVLGGGGGSGGGGSGGGGSGGGGSEVQLVESGGGRVQPGGSLRLSCAASGFSFSTTYYMCWVRQAPGKGLEWIGCTNTASSVRTYYATWAKGRFTISRDNSKNTVYLQMNSLRAEDRAVYYCARDMGFADYALNLWGQGTAVQVSS
notes: PRO1922 variant; VH substitutions, AHo numbering; also called PRO1922 L12R-T101R-L144A-T146Q
B5: PRO3346 (scFv 54-21-H03-sc01_(T101S T146K)) (scFv)
scFv: DIQMTQSPSSLSASVGDRVTITCQASESIYSSLAWYQQKPGKAPKLLIYLASTLASGVPSRFSGSGSGTDFTLTISSLQPEDFATYYCQSTDYTTSTHRNSFGTGTKVTVLGGGGGSGGGGSGGGGSGGGGSEVQLVESGGGLVQPGGSLRLSCAASGFSFSTTYYMCWVRQAPGKGLEWIGCTNTASSVRTYYATWAKGRFTISRDNSKNTVYLQMNSLRAEDSAVYYCARDMGFADYALNLWGQGTLVKVSS
notes: PRO1922 variant; VH substitutions, AHo numbering; also called PRO1922 T101S-T146K
B6: PRO3318 (scFv 54-21-H03-sc01_(L12A, T101R, L144A, T146Q)) (scFv)
scFv: DIQMTQSPSSLSASVGDRVTITCQASESIYSSLAWYQQKPGKAPKLLIYLASTLASGVPSRFSGSGSGTDFTLTISSLQPEDFATYYCQSTDYTTSTHRNSFGTGTKVTVLGGGGGSGGGGSGGGGSGGGGSEVQLVESGGGAVQPGGSLRLSCAASGFSFSTTYYMCWVRQAPGKGLEWIGCTNTASSVRTYYATWAKGRFTISRDNSKNTVYLQMNSLRAEDRAVYYCARDMGFADYALNLWGQGTAVQVSS
notes: PRO1922 variant; VH substitutions, AHo numbering; also called PRO1922 L12A-T101R-L144A-T146Q
B7: PRO3326 (scFv 54-21-H03-sc01_(T101Q, T146Q)) (scFv)
scFv: DIQMTQSPSSLSASVGDRVTITCQASESIYSSLAWYQQKPGKAPKLLIYLASTLASGVPSRFSGSGSGTDFTLTISSLQPEDFATYYCQSTDYTTSTHRNSFGTGTKVTVLGGGGGSGGGGSGGGGSGGGGSEVQLVESGGGLVQPGGSLRLSCAASGFSFSTTYYMCWVRQAPGKGLEWIGCTNTASSVRTYYATWAKGRFTISRDNSKNTVYLQMNSLRAEDQAVYYCARDMGFADYALNLWGQGTLVQVSS
notes: PRO1922 variant; VH substitutions, AHo numbering; also called PRO1922 T101Q-T146Q
B8: PRO3345 (scFv 54-21-H03-sc01_(T101N, T146Q)) (scFv)
scFv: DIQMTQSPSSLSASVGDRVTITCQASESIYSSLAWYQQKPGKAPKLLIYLASTLASGVPSRFSGSGSGTDFTLTISSLQPEDFATYYCQSTDYTTSTHRNSFGTGTKVTVLGGGGGSGGGGSGGGGSGGGGSEVQLVESGGGLVQPGGSLRLSCAASGFSFSTTYYMCWVRQAPGKGLEWIGCTNTASSVRTYYATWAKGRFTISRDNSKNTVYLQMNSLRAEDNAVYYCARDMGFADYALNLWGQGTLVQVSS
notes: PRO1922 variant; VH substitutions, AHo numbering; also called PRO1922 T101N-T146Q
B9: PRO3320 (scFv 54-21-H03-sc01_(L12A, T101S, L144K, T146Q)) (scFv)
scFv: DIQMTQSPSSLSASVGDRVTITCQASESIYSSLAWYQQKPGKAPKLLIYLASTLASGVPSRFSGSGSGTDFTLTISSLQPEDFATYYCQSTDYTTSTHRNSFGTGTKVTVLGGGGGSGGGGSGGGGSGGGGSEVQLVESGGGAVQPGGSLRLSCAASGFSFSTTYYMCWVRQAPGKGLEWIGCTNTASSVRTYYATWAKGRFTISRDNSKNTVYLQMNSLRAEDSAVYYCARDMGFADYALNLWGQGTKVQVSS
notes: PRO1922 variant; VH substitutions, AHo numbering; also called PRO1922 L12A-T101S-L144K-T146Q
B10: PRO3323 (scFv 54-21-H03-sc01_(L12A, T101Q, L144A, T146Q)) (scFv)
scFv: DIQMTQSPSSLSASVGDRVTITCQASESIYSSLAWYQQKPGKAPKLLIYLASTLASGVPSRFSGSGSGTDFTLTISSLQPEDFATYYCQSTDYTTSTHRNSFGTGTKVTVLGGGGGSGGGGSGGGGSGGGGSEVQLVESGGGAVQPGGSLRLSCAASGFSFSTTYYMCWVRQAPGKGLEWIGCTNTASSVRTYYATWAKGRFTISRDNSKNTVYLQMNSLRAEDQAVYYCARDMGFADYALNLWGQGTAVQVSS
notes: PRO1922 variant; VH substitutions, AHo numbering; also called PRO1922 L12A-T101Q-L144A-T146Q
B11: PRO3329 (scFv 54-21-H03-sc01_(T101Q)) (scFv)
scFv: DIQMTQSPSSLSASVGDRVTITCQASESIYSSLAWYQQKPGKAPKLLIYLASTLASGVPSRFSGSGSGTDFTLTISSLQPEDFATYYCQSTDYTTSTHRNSFGTGTKVTVLGGGGGSGGGGSGGGGSGGGGSEVQLVESGGGLVQPGGSLRLSCAASGFSFSTTYYMCWVRQAPGKGLEWIGCTNTASSVRTYYATWAKGRFTISRDNSKNTVYLQMNSLRAEDQAVYYCARDMGFADYALNLWGQGTLVTVSS
notes: PRO1922 variant; VH substitution, AHo numbering; also called PRO1922 T101Q
B12: PRO3321 (scFv 54-21-H03-sc01_(L12R, T101S, L144A, T146Q)) (scFv)
scFv: DIQMTQSPSSLSASVGDRVTITCQASESIYSSLAWYQQKPGKAPKLLIYLASTLASGVPSRFSGSGSGTDFTLTISSLQPEDFATYYCQSTDYTTSTHRNSFGTGTKVTVLGGGGGSGGGGSGGGGSGGGGSEVQLVESGGGRVQPGGSLRLSCAASGFSFSTTYYMCWVRQAPGKGLEWIGCTNTASSVRTYYATWAKGRFTISRDNSKNTVYLQMNSLRAEDSAVYYCARDMGFADYALNLWGQGTAVQVSS
notes: PRO1922 variant; VH substitutions, AHo numbering; also called PRO1922 L12R-T101S-L144A-T146Q
B13: PRO3319 (scFv 54-21-H03-sc01_(L12A, T101S, L144A, T146R)) (scFv)
scFv: DIQMTQSPSSLSASVGDRVTITCQASESIYSSLAWYQQKPGKAPKLLIYLASTLASGVPSRFSGSGSGTDFTLTISSLQPEDFATYYCQSTDYTTSTHRNSFGTGTKVTVLGGGGGSGGGGSGGGGSGGGGSEVQLVESGGGAVQPGGSLRLSCAASGFSFSTTYYMCWVRQAPGKGLEWIGCTNTASSVRTYYATWAKGRFTISRDNSKNTVYLQMNSLRAEDSAVYYCARDMGFADYALNLWGQGTAVRVSS
notes: PRO1922 variant; VH substitutions, AHo numbering; also called PRO1922 L12A-T101S-L144A-T146R
B14: PRO3325 (scFv 54-21-H03-sc01_(T101S, T146R)) (scFv)
scFv: DIQMTQSPSSLSASVGDRVTITCQASESIYSSLAWYQQKPGKAPKLLIYLASTLASGVPSRFSGSGSGTDFTLTISSLQPEDFATYYCQSTDYTTSTHRNSFGTGTKVTVLGGGGGSGGGGSGGGGSGGGGSEVQLVESGGGLVQPGGSLRLSCAASGFSFSTTYYMCWVRQAPGKGLEWIGCTNTASSVRTYYATWAKGRFTISRDNSKNTVYLQMNSLRAEDSAVYYCARDMGFADYALNLWGQGTLVRVSS
notes: PRO1922 variant; VH substitutions, AHo numbering; also called PRO1922 T101S-T146R

Experiments:
[1] = molecular target: pre-existing anti-drug antibodies (ADA) present in human sera; assay: pre-existing ADA ELISA, scFv coated, human sera unspiked vs spiked
[2] = molecular target: T1, human a-Mesothelin (Acro Biosystems; MSN_H5223) (human, UniProt Q13421 296-580, limits assumed); assay: SPR, mesothelin immobilised, scFv analyte, 1:1 fit
T1 construct: Bought protein immobilised on the SPR chip; Printed as 'a-Mesothelin' but used as the antigen for the anti-MSLN scFvs; also called Human MSLN; MSLN
Method: The mutation variants were then injected at concentrations of 10 nM, 2 nM and 0.4 nM over the ligand-immobilized and reference spots. The wild type variants were used as a control, while an empty spot was used as reference.
After each cycle with analyte, the surface was regenerated with a 3M MgCl₂ solution, thereby allowing the next analyte cycle to have only free ligand available. Binding affinity KD was globally calculated by the Bruker SPR software based on the binding association (kₒₙ) and dissociation (Koff) rate, by fitting a 1:1 Langmuir model to the curves obtained by the cycles with the three different concentrations of the analyte.

T1 sequence (Q13421 other isoform, or with tags, fused parts or gaps limits assumed): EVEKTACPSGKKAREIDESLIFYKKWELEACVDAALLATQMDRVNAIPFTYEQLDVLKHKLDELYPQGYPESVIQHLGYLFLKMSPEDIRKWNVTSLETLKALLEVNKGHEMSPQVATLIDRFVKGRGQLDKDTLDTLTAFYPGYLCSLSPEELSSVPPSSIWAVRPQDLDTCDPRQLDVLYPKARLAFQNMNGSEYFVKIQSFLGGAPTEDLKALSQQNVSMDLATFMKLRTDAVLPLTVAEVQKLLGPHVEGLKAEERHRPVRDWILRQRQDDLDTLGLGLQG

| Binder | Mean No of serum samples >30% inhibition (30% CCP) with SCP (serum samples) [1] | No of serum samples >30% inhibition (30% CCP) without SCP (serum samples) [1] | Kd [2] [nM] | n-fold to wt [2] [fold] |
| --- | --- | --- | --- | --- |
| B1 | 2 | 6 | 1.5 | 0.8 |
| B2 | 1 | 2 | 1.9 | 1.1 |
| B3 | 0 | 0 | 1.6 | 0.9 |
| B4 | 0 | 0 | 2.1 | 1.2 |
| B5 | 0 | 0 | 1.5 | 0.8 |
| B6 | 0 | 0 | 2.3 | 1.3 |
| B7 | 0 | 0 | 1.8 | 1 |
| B8 | 0 | 0 | 1.5 | 0.8 |
| B9 | 0 | 0 | 1.6 | 0.9 |
| B10 | 0 | 0 | 1.7 | 0.9 |
| B11 | 1 | 2 | 1.6 | 0.9 |
| B12 | 0 | 0 | 1.7 | 0.9 |
| B13 | 0 | 0 | 2.5 | 1.4 |
| B14 | 1 | 4 | 1.8 | 1 |
